# Measurements reported in PMC12014907.
# Biological target: STAT3^136-705, P40763
# Assay: thermal shift assay
# Conditions: chain shown with the change; 25 μM phosphopeptides; parent: est. 54; read off a plot
# STAT3^136-705, P40763, sequence (P40763 136-705): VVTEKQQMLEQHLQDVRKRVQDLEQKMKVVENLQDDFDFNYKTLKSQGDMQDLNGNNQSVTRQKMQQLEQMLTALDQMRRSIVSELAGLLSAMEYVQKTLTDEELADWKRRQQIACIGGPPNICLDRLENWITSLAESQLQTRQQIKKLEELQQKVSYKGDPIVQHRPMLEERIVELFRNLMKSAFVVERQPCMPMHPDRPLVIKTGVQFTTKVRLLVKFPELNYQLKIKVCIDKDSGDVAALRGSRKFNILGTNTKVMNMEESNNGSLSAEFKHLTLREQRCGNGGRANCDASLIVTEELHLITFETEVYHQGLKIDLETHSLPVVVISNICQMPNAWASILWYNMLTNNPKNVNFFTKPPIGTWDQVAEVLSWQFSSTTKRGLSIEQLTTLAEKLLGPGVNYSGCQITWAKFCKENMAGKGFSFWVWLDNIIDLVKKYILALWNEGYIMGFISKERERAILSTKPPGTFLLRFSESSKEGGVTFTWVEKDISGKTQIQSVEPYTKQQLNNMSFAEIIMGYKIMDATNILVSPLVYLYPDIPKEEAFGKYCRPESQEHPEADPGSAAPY
binder,measurement,value
SGYIHQVPSV [gp130 phosphopeptide R168I],other: Tm of STAT3 with bound peptide (thermal shift),55 °C
